The record followed here is paper PMC10269814, “New Perspectives on Escherichia coli Signal Peptidase I Substrate Specificity: Investigating Why the TasA Cleavage Site Is Incompatible with LepB Cleavage” (Microbiology Spectrum, 2023).

Test [1] has as its target T1, LepB Δ2-76 (Escherichia coli, UniProt P00803).
T1 construct: made in house; host or cells: E. coli BL21(DE3)
The test is described as follows: biochemical. The protocol: The cleavage of the fluorescent peptide, Dabcyl-[…]-Edans, by LepB leads to an increase in relative fluorescence over time. If the ability of LepB to cleave this peptide is inhibited, the increase in relative fluorescence per second should decrease in a concentration-dependent manner.
A reaction in a 100-μL reaction mixture in phosphate-buffered saline (PBS) (pH 7.4) containing 0.1% Triton X-100 was initiated by adding 450 nM LepB Δ2-76 to a black, clear-bottom 96-well plate (Corning, Corning, NY, USA). In triplicate, wells contained a 2-fold serial dilution of the peptide being tested from 0.5 mg/mL and 10 μM fluorescent peptide, Dabcyl-[…]-Edans (Mimotopes, Mulgrave, VIC, Australia). While the peptide containing the two fluorophores is intact, the Edans emission is quenched by Dabcyl through FRET. However, once the peptide is cleaved by LepB, the fluorophores are no longer in close enough proximity for the transfer of energy and the fluorescence emission of Edans is recorded. The cleavage of the fluorescent peptide by LepB was recorded using an excitation wavelength of 340 nm and an emission wavelength of 490 nm recorded every 2 min for 30 min in a Tecan Infinite 200 Pro plate reader. Data were analyzed using the formula [(RFU2 − RFU1)/(time2 − time1)] = RFU/s on the linear portion of the reaction (where RFU stands for relative fluorescent units), and the absolute IC50 was determined using the simple linear regression analysis on Prism 9.

For test [2], the target named is T2, LepB Δ2-76 His-SUMO (Escherichia coli signal peptidase I) (Escherichia coli, UniProt P00803).
T2 construct: purchased Sapphire Bioscience
The test is described as follows: biochemical. The test is classed as binding. From the text:
Surface plasmon resonance (SPR) analysis on a Pioneer FE system (Sartorius, Göttingen, Germany) was used to determine the on- and off-rates of custom peptides (Mimotopes, Mulgrave, VIC, Australia) with purchased LepB (Sapphire Bioscience, Redfern, NSW, Australia) ([9]). Briefly, LepB Δ2-76 His-SUMO was immobilized onto a CDH chip (Sartorius, Göttingen, Germany) onto flow cells 1 and 3 by an amine coupling reaction using 0.2 M 1-ethyl-3-[(3-dimethylamino)propyl]-carbodiimide (EDC) and 0.05 M N-hydroxysuccinimide (NHS). The EDC-NHS mix was caused to flow over at 15 μL/min for 100 s, LepB was injected at 10 μL/min for 10 min, and then ethanolamine was caused to flow over at 10 μL/min for 10 min. Flow cell 2 was used as a reference cell, and no LepB was injected over this cell. The assay was performed using a OneStep assay method with 75% of the loop. Peptides were caused to flow over the flow cells at a concentration of 50 μM at a flow rate of 50 μL/min with a dissociation period of 180 s. A regeneration cycle at a flow rate of 50 μL/min for 3 min with Tris-EDTA (TE) was completed after every cycle. Data were collected in triplicate, and analysis was completed with the Qdat analysis software (Sartorius, Göttingen, Germany; see Fig. S1 in the supplemental material).

Test [3] relates to E. coli MG1655 (empty pBAD) and E. coli BL21(DE3) (empty pET15b). The test can be described thus: MIC assay against E. coli. The test is classed as cell-based, Escherichia coli. Conditions: rich (Mueller-Hinton) and M9 minimal media, with or without subinhibitory DMSO (5%); overnight 37°C; peptides 08 and 10 from 0.5 mg/mL, 11 from 1 mg/mL. The protocol: (§1) The resistance to the peptides was determined using MIC methods as previously described ([31]). Briefly, 5 × 10^5 cells were added to a 96-well plate which contained a peptide 2-fold serially diluted in either M9 minimal medium containing 5% DMSO and 0.2% glucose or Mueller-Hinton medium containing 5% DMSO. Plates were incubated overnight at 37°C, and the MIC result was scored as the last set of wells that contained no growth of bacteria. Bacteria tested were E. coli MG1655 containing an empty pBAD plasmid, E. coli BL21(DE3) containing an empty pET15b plasmid, S. aureus FDA209, and S. aureus USA300. Peptides 08 and 10 were tested from 0.5 mg/mL, and peptide 11 was tested from 1 mg/mL.

In test [4] the test system is Staphylococcus aureus FDA209. In kind it is cell-based. Conditions: strain FDA209, rich medium, subinhibitory DMSO (5%), overnight 37°C. The protocol: as §1
Test [5] concerns Staphylococcus aureus USA300. In kind it is cell-based. Conditions: strain USA300, rich medium, subinhibitory DMSO (5%), overnight 37°C. The protocol: as §1
Test [6] concerns the target LepB Δ2-76 His-SUMO (Escherichia coli) (UniProt P00803). The test is described as follows: SPR; LepB Δ2-76 His-SUMO amine-coupled (EDC/NHS) to a CDH chip, Pioneer FE; OneStep method with 75% of the loop; peptides flowed at 50 μM, 50 μL/min, 180 s dissociation; regeneration with Tris-EDTA; triplicate.
For test [7], the target named is LepB Δ2-76 (Escherichia coli (strain DH5α)) (UniProt P00803).

≈ marks a conversion by molar mass, not a printed value. Where “and” joins values, the source holds several entries; their conditions need not be identical. Equal values may be shown once. Ends that are not written are not given here. Peptide text beside a SMILES is read from it.

Usually IC50 stands for the point on the concentration scale where inhibition reaches its midpoint. Higher therefore signals weaker potency. Regarding GGTWAAFE [Peptide 05], in test [1], the IC50 is 967 µM.
As a reminder, the Kd is a measure of binding affinity in units of concentration. Low readings indicate tighter binding, high ones weaker binding. In test [2], GGGTWAAFEEGK [Peptide 01] had a dissociation constant (Kd) of 10.3 µM. In test [1], this molecule showed an IC50 of 1600 µM.
For orientation: MIC means the smallest concentration in the dilution series that meets the test's criterion for growth inhibition. Regarding GGTWAAIE [Peptide 10], the Kd off-rate in test [2] (SPR OneStep, LepB amine-coupled to CDH chip, peptide 50 μM, dissociation 180 s, mean ± standard error, triplicate) was 0.00421 s⁻¹ and 0.00421 ± 0.00049 s⁻¹. The same molecule had a Ka on-rate in test [2] (SPR OneStep, Pioneer FE, LepB amine-coupled to CDH chip, peptide 50 μM, flow 50 μL/min, mean ± standard error, triplicate) of 4770 ± 590 M⁻¹ s⁻¹. Also, the MIC entry in test [3] is given as “No MIC was observed”.
TWAAIE [Peptide 08]: the Kd in test [2] amounted to 0.7 ± 0.35 µM. Further, half-maximal inhibition in test [1] (IC50) required 647 µM.
In test [2], VGGGTWAAFETL [Peptide 02] showed a dissociation constant Kd of 12.8 ± 2.55 µM. Besides, half-maximal inhibition in test [1] (IC50) required 1010 µM.
Turning to GGTWAAFNDV [Peptide 03], in test [2], the Kd came out at 8.71 ± 2.14 µM. This molecule also gave an IC50 in test [1] of 1160 µM.
The matching figures for TWAAFN [Peptide 07]: 5.38 ± 0.2 µM and 1970 µM.
In test [2], VGGGTWAAIEEGKL [Peptide 04] registered an equilibrium dissociation constant (Kd) of 8.83 ± 2.59 µM. The molecule further showed an IC50 in test [1] of 1680 µM.
On the same counts, the results for GGGTWAAIE [Peptide 06] are 17.3 ± 0.2 µM and 4520 µM.
`C[C@H](N)C(=O)N[C@@H](C)C(=O)N[C@@H](Cc1ccccc1)C(=O)N[C@@H](CCC(=O)O)C(=O)O` [Peptide 11] (H-AAFE-OH) showed a Kd in test [2] of 18.5 ± 0.62 µM. The molecule also gave an IC50 in test [1] of 3790 µM. Moreover, the MIC in test [4] and in test [5] was 1000 µg/mL (≈ 2290 µM) each time.
What is called koff is the rate constant with which the complex falls apart. Read a low koff as slow dissociation. A word on the kon: it is the second-order rate constant of association. Low readings indicate slower complex formation, high ones faster complex formation. Take GGGTWAAFEEGK [peptide 01]: in test [6], the koff turned out to be 0.0434 s⁻¹ and the association rate constant (kon) was determined as 4440 M⁻¹ s⁻¹. Also, the IC50 of LepB cleavage of the fluorescent peptide Dabcyl-DAPPAKAA-Edans (FRET enzyme assay) in test [7] was 1930 µg/mL.
Take GGTWAAFE [peptide 05]: the IC50 of LepB cleavage of the fluorescent peptide Dabcyl-DAPPAKAA-Edans (FRET enzyme assay) in test [7] is 810 µg/mL.
In test [6], VGGGTWAAFETL [peptide 02] registered a koff of 0.0147 s⁻¹ and a kon of 1140 M⁻¹ s⁻¹. This molecule had an IC50 of LepB cleavage of the fluorescent peptide Dabcyl-DAPPAKAA-Edans (FRET enzyme assay) in test [7] of 1220 µg/mL.
For VGGGTWAAIEEGKL [peptide 04], in test [6], the off-rate (koff) turned out to be 0.17 s⁻¹ and the kon came to 26400 M⁻¹ s⁻¹. Also, the IC50 of LepB cleavage of the fluorescent peptide Dabcyl-DAPPAKAA-Edans (FRET enzyme assay) in test [7] is 2340 µg/mL.
The matching figures for TWAAFN [peptide 07]: 0.321 s⁻¹, 60400 M⁻¹ s⁻¹ and 1390 µg/mL.
The matching figures for GGTWAAFNDV [peptide 03]: 0.947 s⁻¹, 146000 M⁻¹ s⁻¹ and 1210 µg/mL.
The matching figures for GGGTWAAIE [peptide 06]: 0.0208 s⁻¹, 1200 M⁻¹ s⁻¹ and 3890 µg/mL.
In test [6], TWAAIE [peptide 08] gave a koff of 0.00239 s⁻¹ and an on-rate constant (kon) of 2500 M⁻¹ s⁻¹. Also, the IC50 of LepB cleavage of the fluorescent peptide Dabcyl-DAPPAKAA-Edans (FRET enzyme assay) in test [7] stood at 446 µg/mL.
On the same counts, the results for AAFE [peptide 11] are 0.442 s⁻¹, 15900 M⁻¹ s⁻¹ and 1660 µg/mL.
